Laboratory results as given in paper PMC6877594, “Atomic structure of the human herpesvirus 6B capsid and capsid-associated tegument complexes” (Nature Communications, 2019).
Where “and” joins values, the source holds several entries; their conditions need not be identical. Equal entries are not always repeated.

B1: major capsid protein (MCP) of human herpesvirus 6B (natural protein)
chain: MENWQATEILPKIEAPLNIFNDIKTYTAEQLFDNLRIYFGDDPSRYNISFEALLGIYCNKIEWINFFTTPIAVAANVIRFNDVSRMTLGKVLFFIQLPRVATGNDVTAPKETTIMVAKHSEKHPINISFDLSAACLEHLENTFKNTVIDQILNINALHTVLRSLKNSADSLERGLIHAFMQTLLRKSPPQFIVLTMNENKVHNKQALSRVQRSNMFQSLKNRLLTSLFFLNRNNNSSYIYRILNDMMESVTESILNDTNNYTSKENIPLDGVLLGPIGSIQKLTNILSQYISTQVVSAPISYGHFIMGKENAVTAIAYRAIMADFTQFTVNAGTEQQDTNNKSEIFDKSRAYADLKLNTLKLGDKLVAFDHLHKVYKNTDVNDPLEQSLQLTFFFPLGIYIPTETGFSTMETRVKLNDTMENNLPTSVFFHNKDQVVQRIDFADILPSVCHPIVHDSTIVERLMKNEPLPTGHRFSQLCQLKITRENPTRILQTLYNLYESRQEVPKNTNVLKNELNVEDFYKPDNPTLPTERHPFFDLTYIQKNRATEVLCTPRIMIGNMPLPLAPISFHEARTNQMLEHAKTNSHNYDFTLKIVTESLTSGSYPELAYVIEILVHGNKHAFMILKQVISQCISYWFNMKHILLFCNSFEMIMLISNHMGDELIPGAAFAHYRNLVSLIRLVKRTISISNINEQLCGEPLVNFANALFDGRLFCPFVHTMPRNDTNAKITADDTPLTQNTVRVRNYEISDVQRMNLIDSSVVFTDNDRPSNENTILSKIFYFCVLPALSNNKACGAGVNVKELVLDLFYTEPFICPDDCFQENPISSDVLMSLIREAMGPGYTVANTSSIAKQLFKSLIYINENTKILEVEVSLDPAQRHGNSVHFQSLQHILYNGLCLISPITTLRRYYQPIPFHRFFSDPGICGTMNADIQVFLNTFPHYQRNDGGFPLPPPLALEFYNWQRTPFSVYSAFCPNSLLSIMTLAAMHSKLSPVAIAIQSKSKIHPGFAATLVRTDNFDVECLLYSSRAATSIILDDPTVTAEAKDIVTTYNFTQHLSFVDMGLGFSSTTATANLKRIKSDMGSKIQNLFSAFPIHAFTNTDINTWIRHHVGIEKPNPSEGEALNIITFGGINKNPPSILLHGQQAICEVILTPVTTNINFFKLPHNPRGRESCMMGTDPHNEEAARKALYDHTQTDSDTFAATTNPWASLPGSLGDILYNTAHREQLCYNPKTYSPNAQFFTESDILKTNKMMYKVINEYCMKSNSCLNSDSEIQYSCSEGTDSFVSRPCQFLQNALPLHCSSNQALLESRSKTGNTQISETHYCNYAIGETIPLQLIIESSI
notes: major capsid protein (MCP) of human herpesvirus 6B, strain Z29; 1345 amino acids long; domains described over a.a; 1-1345; Native protein in the virion capsid; 16 conformers (15 hexon, 1 penton) modelled in each asymmetric unit; also called penton MCP; hexon MCP

Key:
[1] = biological target: the molecule itself; assay: cryo-EM structure; in situ in HHV-6B (Z29) virions pelleted from SupT1 culture supernatant and resuspended in PBS; icosahedral reconstruction ~5.1 Å, sub-particle reconstructions at the fivefold, threefold and twofold axes at 3.82, 3.77 and 3.77 Å; atomic models of 59 conformers
[2] = biological target: B1; assay: as above; settings: partners not purified

| Binder | stoichiometry N [1] | stoichiometry N [2] |
| --- | --- | --- |
| B1 | 5 and 6 |  |
| triplex dimer protein (Tri2) of human herpesvirus 6B (natural protein, triplex dimer protein (Tri2) of human herpesvirus 6B, strain Z29; domains clamp (a.a. 1-86), trunk (a.a. 87-181 and 276-296), embracing arm (a.a. 182-275); Native protein in the virion capsid; two conformers (Tri2A, Tri2B) of the same protein in each triplex; also called Tri2A; Tri2B) METVYCTFDHKLSLSDISTLCKLMNIVIPIPAHHHLIGSGNLGLYPIVSSNKDYVHIRNVLRTMVVTILQKVEGNQLVLRKPMTGQQYAIKNTGPFPWEKGDTLTLIPPLSTHSEEKLLKLGDWELTVPLVVPTAIAAEINIRLLCIGLIAVHREYNEMQTIIDELCSIQYRDVLIKLPDIVNDKQSMYSMKTACISLSMITAMAPDIVRTYIDRLTLEDHSMLLIKCQELLSKRTTLSTQRCGQLHATDIKDELKKIKSVLTMIDQINSLTNEKTYFVVCDVSADNRMATCIYKN | 2 |  |
| tegument protein pU11 of human herpesvirus 6B (natural protein, tegument protein pU11 of human herpesvirus 6B, strain Z29; 858 a.a. long; wild-type full-length protein inside the virion, only a.a; 7-275 (pU11nt) are resolved and modelled; also called pU11nt (the resolved N-terminal one-third, a.a. 7-275); pU11nt-a-1) MDLKAQSIPFAWLDRDKVQRLTNFLSNLENLENVDLREHPYVTNSCVVREGEDVDELKTLYNTFILWLMYHYVLSKRKPDYNAIWQDITKLQNVVNEYLKSKGLNKGNFENMFTNKEKFESQFSDIHRALLRLGNSIRWGSNVPIDTPYVNLTAEDSSEIENNLQDAEKNMLWYTVYNINDPWDENGYLVTSINKLVYLGKLFVTLNQSWSKLEKVAMSQIVTTQNHLSGHLRKNENFNAVYSQRVLQTPLTGQRVESFLKIITSDYEIIKSSLESYSASKAFSVPENGPHSLMDFASLDGRMPSDLSLPSISIDTKRPSADLARLKISQPKSLDAPLKTQRRHKFPESDSVDNAGGKILIKKETLGGRDVRATTPVSSVSLMSGVEPLSSLTSTNLDLRDKSHGNYRIGPSGILDFGVKLPAEAQSNTGDVDLLQDKTSIRSPSSGITDVVNGLANLNLRQNKSDVSRPWSKNTAANADVFDPVHRLVSEQTGTPFVLNNSDVAGSEAKLTTHSTETGVSPHNVSLIKDLRDKDGFRKQKKLDLLGSWTKEKNDKAIVHSREVTGDSGDATETVTARDSPVLRKTKHANDIFAGLNKKYARDVSRGGKGNSRDLYSGGNAEKKETSGKFNVDKEMTQNEQEPLPNLMEAARNAGEEQYVQAGLGQRVNKILAEFTNLISLGEKGIQDILHNQSGTELKLPTENKLGRESEEANVERILEVSDPQNLFKNFKLQNDLDSVQSPFRLPNADLSRDLDSVSFKDALDVKLPGNGEREIDLALQKVKAGERETSDFKVGQDETLIPTQLMKVETPEEKDDVIEKMVLRIRQDGETDEETVPGPGVAESLGIAAKDKSVIAS | 4 |  |
| smallest capsid protein (SCP) of human herpesvirus 6B, U32 gene product (natural protein, smallest capsid protein (SCP), U32 gene product of human herpesvirus 6B, strain Z29; 89 residues long; the model covers residues 23-83, residues 1-22 are disordered; Native protein in the virion capsid; 16 conformers modelled in each asymmetric unit; also called penton SCP; hexon SCP) MTTIRGDDLSNQITQISGSSSKKEEEKKKQQMLTGVLGLQPTMANHPVLGVFLPKYAKQNGGNVDKTAFRLDLIRMLALHRLNTKTGSD |  | 1 |
